In the nanobody polyreactivity screen of Harvey et al. (2022):

Test: yeast display, Sf9 membrane polyspecificity reagent, FACS + sequencing; frameworks hold sequencing errors
In short: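 After 36–48 hours of galactose induction, yeast (Saccharomyces cerevisiae BJ5465) displaying a synthetic nanobody library were stained at 4 °C for 1 hour with 10% biotinylated, detergent-solubilized Sf9 membrane reagent. Streptavidin microbeads enriched the stained cells before FACS sorting into low and high (top ~1%) gates on anti-HA and streptavidin fluorescence. Each clone's polyreactivity label reflects its gate of origin.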

Row | Sequence | polyreactivity (PSR sort gate)
1 | QVQLVESGGGLVQAGGSLRLSCAASGRIFYGYAMGWYRQAPGKERELVAGISYRGARTYYADSVKGRFTISRDNAKNTVYLQMNSLKPEDTAVYYCNAVPYYPFAFGALDYWGQGTQVTVSS | high polyreactivity
2 | QVQLVESGGGLVQAGGSLRLSCAASGRIFAFYAMGWYRPAPGKEREFVAAITYSGGNTNYADSVKGRFTISRDNAKNTVYIEMNSLKPEDTPVYYCAADLVYGVYYQEDYWGQGTQVTVSS | low polyreactivity
3 | QVQLVESGGGLVQAGGSLRLSSADSGRTFRYYSMGWYRQAPGKERELVAAISSSGASTYYADSVKGRFTISRDYAKNTVYLQMNSLKPEDTAVYYCRSGILFYSRYDYWGQGTQVTVSS | low polyreactivity
4 | QVQLVESGGGLVQAGGSLRLSCAASGGNFKRYAMGWYRQAPGKERELVAAISGRGGSTYYADSVKGRFTISRDYAKNTVYLQMNSLKPEDTAVYYCDAYWRYRTDMDYWGQGTQVTVSS | high polyreactivity
5 | QVQLVESGGGLVQAGGSLRLSCAASGFIFGHYAMGWYRQAPGKERELVAGIISSGGSTHYADSVKGRFTISRDNAKNTVYLQMNSLKPEDTAVYFCAADVYRYYAGSRYYYWGQGTQVTVSS | low polyreactivity
6 | QVQLVESGGGLVQAGGSLRLSCAASGSTIYPYAMGWYRQAPGKERELVAAISSGGRTYYADSEKGRFTISRDKAKNTVYLQMNSLKPEDPAVYYCAARVTKKYRRTYDYWGQGTQVTVSS | high polyreactivity
7 | QVQLVESGGALVQAGGSLRLSCAASGFIFPYYAMGWYRQAPGKERELVAAITFSATRTYYADSVKGRFTISRDNAKNTVYLQMNSLKPEDTAVYYCAVGSASSGYEYDYWGQGTQVTVSS | low polyreactivity
8 | QVQLVESGGGLVQAGGSLRLSCAASGSIFSPYTMGWYRQAPGKERELVAAMSASGGSTYYADSVKGRFTISRDNAKNTVYLQMNSLKPEDTAVYYCNVYRITRHSYNCGFDYWGQGTQVTVSS | low polyreactivity
9 | QDQHVESGGGLVQAGGSLRLSCAASGLTFGTYAKGWYRQAPGKERELVAAITTGARTYFADSVKGRFTISRDNAKNTVYLKMNSLKPEDTAVYYCAAYKFYSEYEYWGQGTQVTVSS | high polyreactivity
10 | QVQLVESGGGLVQAGGSLRLSCAASGFTFGYYAMGWYRQAPGKERELVGAINWSGGRTYYADSVKGRFTISRDNAKNTVYLQMNSLKPEDTAVYYCAASAHYDGDYWGQGTQVTVSS | high polyreactivity
11 | QVQLVESGGGLVQAGGSLRLSCAASGIFSIYAMGRYRQAPGKERELVAAITSGGGRTYYADSVKGRFTISRDNAKNTVYLQMNSLKPEDTAVYYCARVQRGDYDYWGQGTQVTVTS | high polyreactivity
12 | QVQLVESGGGLVQAGGSLRLSCAASVFTFISYAMGRYRQAPGKEREFVAAITRGGGSTYYADSVKGRFTISRDNAKNTVYLQMNSLKPEDTAVYYCAADPQSTIRDYWGQGTQVTVSS | high polyreactivity
13 | QVQLVESGGGLVQAGGSLRLSCAASGRTFRRYAMGWYRQAPGKERELVATITNAGSTYYADSVKGRFTISRDNAKNTVYLQMNSLKPEDTAVYYCAARVPYISDYWGQGTQVTVSS | low polyreactivity
14 | QVQLVESGGGLVQAGGSLRLSCAASGFIFALYAMGWYRQAPGKERELVASISKSGARTYYADSVKGRFTISRDNAKNTVDLQMNSLKPEDPAVYYCAALYRTGGIQYAGYGYWGQGTQVTVSS | high polyreactivity
15 | QVQLVESGGGLVQAGGSLRLSCAASGSIFYGYAMGWYRQAPGKERELVARITGSGGDTSYADSVKGRFTISRDNAKNTVYLQMNSLKPEDTAVYYCAKRGYHFLTKYDYWGQGTQVTVSS | low polyreactivity
16 | QVQLVESGGGLVQAGGSLRLSCAASGSTLAVYPMGWYRQAPGKERELVAVIDRGGSTYYADSVKGRFTISRDNAKNTVYLQMNSLKPEDTAVFNCNARRVKGYGYWGHGTQVTVSS | high polyreactivity
17 | QVHLVESGGGLVQAGGSLRLSSAASGLIFYHYAMGWYRQAPGNERELVAAITKRGGSTYYADSVKGRFTISRDNAKNTVYLQINSLKQEDTAVYYCAADGVRYTQSFEMYWGQGTQVTVSS | high polyreactivity
18 | QVQLVESGGGLVQAGGSLRLSGAATGSIIHPYAMGWYRQAPGKERELLAAISKSGGNTYYADSVKGRITISRDNAKNTVYLQMNSLKPEDTAVYYCAALDYWGQGTQVTVSS | low polyreactivity
19 | QVQLVESGGGLVQAGGSLRLTCAASGSIFFDYGMGWYRQAPGKERELVATITRGTGSTYYADSVKGRFTISRDNAKNTVSLQMNSLKPEDTAVYYCAESYSYYNSYDYWGQGTQVTVSS | high polyreactivity
20 | QVQLVESCGGLVKAGGSLRLSCDASGSTFYNNAMGWYRQAPGKERELVAVITSGGGSTYYADSVKGRFTISRDNAKNTVYLQMNSLKPEDTAVYYCAAKRPFYKYLWLDVRGNYWGQGTQVTVSS | low polyreactivity
21 | QVQLVESGGGLVQAGGSLRLSCAASGFTFFKYAMGWYRQAPGKERVLVAAITRNGGRTYYADSVKGRFTISRDNAKNTVYLQMNSLKPEDTAVYYCNAASVNGGRDFDYWGQGTQVTVSS | high polyreactivity

Row | Sequence | polyreactivity (PSR sort gate)
22 | QVQLVESGGGLVQAGGSLRLSCAASGSTFVYNTMGWYRQAPGKERELVASISSDGNTYYADSVKGRFTISRDNAKNTVYLQMNSLKPEDTAVYYCAARYYYDWRFVGYDYWGQGTQVTVSS | low polyreactivity
23 | QVQLVESGVGLVQAGGSLRLSCAASGLTFDYNAMGWYRQAPGKERELVARISRSGGTTYYADSVKGRFTISRDNAKNTVYLQMNSLKPEDTAVYYCAAERYYVGAYGYWGQGTQVTVSS | high polyreactivity
24 | QVQLVESGGGLVQAGGSLRLSCAASGRIFTYYAMGWYRQAPGKERELVAAINFNSGSTYYADSVKGRFTISRDTAKNTVYLQMNSLKPEDTAVYYCAAVPRRGLPKSYYYWGQGTQVTVSS | high polyreactivity
25 | QVQLVESGGGLVKAGGSLRLSCAASGRIFRYYVMGWYRQAPGKERELVASISWRGTSTYYADSVKGRFTISRDNAKNTVYLQMNSLKPEDTAVYYCNAARPGKNYDSWGQGTQVTVSS | high polyreactivity
26 | QVQLVESGGGLVQAGGSLRLSCAASGSTFDNYALGWYRQAPGKERELVAAINWSGSSTYYADSVKGRFTISRDNAKNTVYLQMNSLKPEDTAVYYCNKTGVTPKTATDGDYWGQGTQVTVSS | low polyreactivity
27 | QVQSEESGGGLVQAGGSLRLSCAASGLIFDGYSMGWNRQAPGKERELVAAITRSGASTSYADSVKGRFTISRDNAKNTVYLQMNSLKPDDTAVYYCAAKVHTFYYHYYSWGQGTQVTVSS | high polyreactivity
28 | QVQLVESGGGLVQAGGSLRLSCAASGSIFAANAMGWYRQAPGKERELVAAISWSGGSTYADSVKGRFTISRDNAKNTVYLQMNSLKPEDTAVYYCNAYVYVGTGRGYDTLDYWGQGTQVTVSS | low polyreactivity
29 | QVQLVESGGGLVQAGGSLRLSCAASGYNFVKNAMGWYRQAPGKERELVAAISTRGGRTYYADSVKGRFTISRDNAKNTVYLQMNSLKPEDTAVYYCAAVHQTSYYDANSYGYWGQGTQVTVSS | high polyreactivity
30 | QVQLVESGGGLVQAGGSLRLSCAASGSTFYVYDMGWYRQAPWKERELVAAISSGAGSTYYADSVKGRFTSSRDNAKNTVYLKLNSLKRKIPRSITALLFTVNGGGSRSHDYWAQGTQVTVSS | low polyreactivity
31 | QVQLVESGGGLVQAGGSLRLSCAASVSIIACYTMGWYRQATGTERELVAGIRRGGSTNYADSVKGRVTISRDNAKNTVYLQMNSLKPEDTAVYYCNAQRTRSYVLRTFDYWGQGTQVTVSS | high polyreactivity
32 | QVQLVESGGGLVQAGGSLRLSCGASGSTSVRYAMGWYRQAPGKERELVAAISSSGGSTYYAVSVKGRFTISRDTAKNTVYLQMNSLKPEDTAVYYCNAVPYTTFDWGQGTQVTVSS | low polyreactivity
33 | QVQLVESGGVLVQAGCSLRLSCAAYGFTFASYAMGWYRQAPGKERELVAAISWGTVSTYYADSVKGRFTISRDNAMITVYLQMNSLRREDTAVYFCDAQRYTRLRRHGYWGLGTQVTVSS | high polyreactivity
34 | QVQLVESGGGLVQAGGSLRLSSAASGSIIQSNAIGGYRQAPGTERELVAAISYRGSRTYYADSVKGRFTISRDNAKNTVYIQMNSLKPDDTAVYYCAAVYRTYGIGPNNYWGQGTQVTVSS | high polyreactivity
35 | QVQLVESGGGLVQAGGSLRLTCAASGSTFSPYAMGWYRQATGKERELVAAISASGGGTYYADSVKGRFTISRDYAKNTVYLQMNRLIPVDTAVYYCARDYGWDISKGRYGYWGQGTQVTVSS | low polyreactivity
36 | QVQLVESGGGLVQAVVSLRLSCAASGSIFGGYAMGWYRQAPGKERELVAAISYRGASTYYADSVKGRFTISRDNAKNTVYLQMNSLKPEDTAVYYCAVAARTRARVLYGYDYWGQGTQVTVSS | low polyreactivity
37 | QVQLVESGGGLVQEGGSLRLSCAASGSNLKGYAMGWYRQAPGKERELVARITRGGSTNYADSVKGRFTISRDNAKNTVYLQRNSLKPEDTAVYYCNKSGRWSARSASREVGDDYWGQGTQVTVSS | low polyreactivity
38 | QVQLVESGGGLVQAGGSLRLSCAASGRTFRKYAMGWYRQAPGTERELVAAISWSGGSTYYANSVKGRFTISRDNAKNTVYLQMNSLKPEDTAVYYGAAVPVHNGSLYWGFTTGYDYWGQGTQVTVSS | low polyreactivity
39 | QVQLVESGGGLVQAGGSLRLSCAASGFTFNGYAMGWYRQAPGKERELVAGITRRGGITYYADSVKGRFTISRDNAKNTVYLQMNCLKPEDTAVYYCARDYIGHALIHHASLYYYWGQGTQVTVSS | high polyreactivity
40 | QVQLVESGGGLVQAGGSLRLSCAASGGTLWVNTMGWYRQAPGKERELVAAISRRGGSTYYADSVKGRFTISRDNAKNTVYLQKNSLKPEDTAVYYCAKGYSSHYWWAYDSWGQGTQVTVSS | high polyreactivity
41 | QVQHVESGGGLVQAGGSLRLSCAASGSTFYIYAMGWYRQAPGKERELVATITDGGSTNFADSVKGRFTISRDNAKNTVYLQMNSLKPEDTAVYYCNANVWTGYDYWGLGTQVTVSS | low polyreactivity
